According to doi:10.1101/2023.01.06.522972 (bioRxiv, 2023):

B1: Leishmania major profilin, wild type (natural protein)
chain: SWQAYVDDSLIGSGNMHSAAIIGAADGSYWAYGGSYVPQPEEVQHIQKCLSDFSFVQSSGVNIYGVKFFGLQCGTDGDCKYIFFKKGAAGGCIYTTKQAFIVAVYGNPGDTSSLQQDLEKNTAHAVTVNPADCNTTVKRIADYLIKLGY
notes: also called LmProfilin; LmProf-WT

How the values were obtained:
Conditions in all cases: both partners purified
[1] = target: B1; assay: other fluorescence titration
Leishmania major actin [2] = target: T1, Leishmania major actin (Leishmania major, UniProt P45520 2-376); assay: ITC
T1 construct: also called LmActin; Leishmania actin
T1 sequence (P45520 2-376): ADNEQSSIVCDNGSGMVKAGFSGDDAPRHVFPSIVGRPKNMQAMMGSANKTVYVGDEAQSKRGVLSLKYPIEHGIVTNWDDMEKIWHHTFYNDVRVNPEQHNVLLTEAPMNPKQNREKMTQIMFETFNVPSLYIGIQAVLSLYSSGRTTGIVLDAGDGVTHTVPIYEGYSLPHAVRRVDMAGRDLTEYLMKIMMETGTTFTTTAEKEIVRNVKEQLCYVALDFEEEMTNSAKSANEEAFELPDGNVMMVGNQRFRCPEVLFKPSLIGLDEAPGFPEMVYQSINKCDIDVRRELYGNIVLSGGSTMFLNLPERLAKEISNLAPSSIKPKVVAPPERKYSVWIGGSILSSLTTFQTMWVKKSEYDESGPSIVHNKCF

Leishmania major actin [3] = target: T1, Leishmania major actin; assay: crystal structure

Row | Binder | Kd [1] | Kd (Leishmania major actin [2]) | stoichiometry N (Leishmania major actin [3])
1 | PPPPPPPPPP (also called poly-L-proline peptide; poly-proline decamer) [poly-L-proline decamer peptide] | 242 ± 38.4 µM | – | –
2 | B1 | – | ~80 nM | 1
